Experimental data reported in US20220332804A1 (CSL INNOVATION, published 2022).

How the values were obtained:
Experiment in all cases: SPR, antibody captured, C2 as analyte;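 also: biacore at 37 °C, anti-C2 mAbs held by immobilised goat anti-human IgG, C2 alanine or serine mutants injected, double-referenced sensorgrams fitted to a 1:1 kinetic or steady-state model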
human C2 T317A = target: T1, human C2 T317A (human, UniProt P06681 21-752)
T1 sequence: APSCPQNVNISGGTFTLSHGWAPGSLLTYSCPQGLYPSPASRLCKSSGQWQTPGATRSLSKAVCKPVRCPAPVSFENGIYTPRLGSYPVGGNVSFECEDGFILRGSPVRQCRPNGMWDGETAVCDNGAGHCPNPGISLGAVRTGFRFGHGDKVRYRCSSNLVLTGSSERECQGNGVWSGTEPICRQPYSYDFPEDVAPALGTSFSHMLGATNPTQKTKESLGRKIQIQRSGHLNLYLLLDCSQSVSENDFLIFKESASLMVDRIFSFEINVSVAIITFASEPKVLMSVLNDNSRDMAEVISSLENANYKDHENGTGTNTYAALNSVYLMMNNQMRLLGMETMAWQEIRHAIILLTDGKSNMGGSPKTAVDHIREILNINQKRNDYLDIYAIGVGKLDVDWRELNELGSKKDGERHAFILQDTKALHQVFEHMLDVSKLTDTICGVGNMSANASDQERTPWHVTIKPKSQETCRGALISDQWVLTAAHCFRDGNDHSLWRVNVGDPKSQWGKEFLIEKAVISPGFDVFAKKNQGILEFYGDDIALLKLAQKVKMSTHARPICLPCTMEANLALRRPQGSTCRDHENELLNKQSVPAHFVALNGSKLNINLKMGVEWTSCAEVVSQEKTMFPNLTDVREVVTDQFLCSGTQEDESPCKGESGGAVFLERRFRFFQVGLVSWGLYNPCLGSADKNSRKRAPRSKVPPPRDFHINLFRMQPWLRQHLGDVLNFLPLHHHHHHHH

human C2 N403A = target: T2, human C2 N403A (human, UniProt P06681 21-752)
T2 sequence: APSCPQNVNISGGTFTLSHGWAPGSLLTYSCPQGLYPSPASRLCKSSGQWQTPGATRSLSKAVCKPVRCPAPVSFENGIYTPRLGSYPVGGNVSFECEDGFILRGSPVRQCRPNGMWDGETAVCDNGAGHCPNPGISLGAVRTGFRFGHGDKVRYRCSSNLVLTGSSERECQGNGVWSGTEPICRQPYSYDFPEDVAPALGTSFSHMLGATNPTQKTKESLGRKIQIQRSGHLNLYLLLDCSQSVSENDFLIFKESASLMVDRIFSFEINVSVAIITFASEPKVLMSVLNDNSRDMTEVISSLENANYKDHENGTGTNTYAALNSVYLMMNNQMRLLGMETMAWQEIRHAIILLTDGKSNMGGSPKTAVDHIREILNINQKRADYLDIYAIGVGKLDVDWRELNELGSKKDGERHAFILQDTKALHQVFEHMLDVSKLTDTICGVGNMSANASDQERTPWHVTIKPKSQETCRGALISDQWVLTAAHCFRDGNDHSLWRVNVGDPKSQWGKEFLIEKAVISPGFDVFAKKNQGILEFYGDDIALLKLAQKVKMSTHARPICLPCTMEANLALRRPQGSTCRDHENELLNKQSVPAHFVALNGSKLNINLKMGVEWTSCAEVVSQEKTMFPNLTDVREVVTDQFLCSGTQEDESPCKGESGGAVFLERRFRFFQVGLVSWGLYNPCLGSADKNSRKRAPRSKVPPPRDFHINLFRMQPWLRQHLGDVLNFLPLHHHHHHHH

human C2 E450A = target: T3, human C2 E450A (human, UniProt P06681 21-752)
T3 sequence: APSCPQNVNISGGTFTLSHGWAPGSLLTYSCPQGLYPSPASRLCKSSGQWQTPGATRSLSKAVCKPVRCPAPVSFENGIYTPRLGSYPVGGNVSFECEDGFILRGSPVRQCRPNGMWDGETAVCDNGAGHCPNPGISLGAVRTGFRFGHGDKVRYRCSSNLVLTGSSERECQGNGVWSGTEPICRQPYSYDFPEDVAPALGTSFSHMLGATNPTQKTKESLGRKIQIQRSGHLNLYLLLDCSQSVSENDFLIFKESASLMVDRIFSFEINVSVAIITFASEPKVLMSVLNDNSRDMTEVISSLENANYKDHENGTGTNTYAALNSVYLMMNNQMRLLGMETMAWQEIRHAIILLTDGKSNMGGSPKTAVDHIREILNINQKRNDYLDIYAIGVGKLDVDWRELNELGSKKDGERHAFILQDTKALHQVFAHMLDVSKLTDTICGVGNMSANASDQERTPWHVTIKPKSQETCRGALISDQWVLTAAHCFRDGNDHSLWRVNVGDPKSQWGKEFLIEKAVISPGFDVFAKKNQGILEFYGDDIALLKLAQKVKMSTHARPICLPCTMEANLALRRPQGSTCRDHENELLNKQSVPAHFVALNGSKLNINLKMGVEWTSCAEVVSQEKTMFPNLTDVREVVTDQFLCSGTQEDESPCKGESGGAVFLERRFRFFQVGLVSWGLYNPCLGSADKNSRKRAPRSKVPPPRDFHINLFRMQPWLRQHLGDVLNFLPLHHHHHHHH

human C2 G677A = target: T4, human C2 G677A (human, UniProt P06681 21-752)
T4 sequence: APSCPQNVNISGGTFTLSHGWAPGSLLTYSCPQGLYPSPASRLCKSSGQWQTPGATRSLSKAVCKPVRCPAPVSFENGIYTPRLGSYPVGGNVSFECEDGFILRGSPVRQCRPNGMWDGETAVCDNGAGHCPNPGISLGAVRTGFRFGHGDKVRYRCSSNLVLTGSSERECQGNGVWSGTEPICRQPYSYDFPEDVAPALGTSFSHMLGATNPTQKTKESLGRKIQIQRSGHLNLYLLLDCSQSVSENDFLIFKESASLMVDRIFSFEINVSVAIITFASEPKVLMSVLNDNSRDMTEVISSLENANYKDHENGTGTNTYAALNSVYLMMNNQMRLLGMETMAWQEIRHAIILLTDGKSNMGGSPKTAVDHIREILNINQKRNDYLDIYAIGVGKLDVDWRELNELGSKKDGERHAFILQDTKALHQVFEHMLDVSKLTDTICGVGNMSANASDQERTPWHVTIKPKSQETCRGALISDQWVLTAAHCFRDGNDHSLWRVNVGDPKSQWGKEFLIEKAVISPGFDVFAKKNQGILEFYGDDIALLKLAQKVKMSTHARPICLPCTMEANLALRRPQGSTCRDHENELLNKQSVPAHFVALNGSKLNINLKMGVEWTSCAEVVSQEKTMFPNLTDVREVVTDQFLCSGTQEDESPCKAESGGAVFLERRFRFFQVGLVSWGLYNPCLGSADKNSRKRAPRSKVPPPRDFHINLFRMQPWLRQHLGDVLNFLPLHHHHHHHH

B1: RF16-242 (antibody, human IgG4 S228P, lambda, V domains shown)
VH: EVQLLQSGAEVKKPGESLKISCKGSGYSFTSYWIGWVRQMPGKGLEWMGIIYPGDSDTRYSPSFQGQVTISADKSISTAYLQWSSLKASDTAMYYCARRGHYGDYFDYWGQGTLVTVSS
VL: SYELTQPPSVSVSPGQTARITCSGDALPKKYAYWYHQKSGQAPVLVIYEDRRRPSEIPERFSGSSSGTMATLTITGAQVEDEGVYFCYSRDRAGNQRVFGGGTQLTVLG
notes: pH-dependent anti-C2 antibody from a phage display library
Work on B1 yielded a Kd (human C2 T317A) of 5.9 nM, a Kd (human C2 N403A) of 8.2 nM and a Kd (human C2 E450A) of 20.3 nM. For the same binder, the Kd (human C2 G677A) was 6.8 nM.
